First the molecules themselves.
B1: REGN10933 + REGN10987 (other)
VH 1: QVQLVESGGGLVKPGGSLRLSCAASGFTFSDYYMSWIRQAPGKGLEWVSYITYSGSTIYYADSVKGRFTISRDNAKSSLYLQMNSLRAEDTAVYYCARDRGTTMVPFDYWGQGTLVTVSS
VL 1: DIQMTQSPSSLSASVGDRVTITCQASQDITNYLNWYQQKPGKAPKLLIYAASNLETGVPSRFSGSGSGTDFTFTISGLQPEDIATYYCQQYDNLPLTFGGGTKVEIK
VH 2: QVQLVESGGGVVQPGRSLRLSCAASGFTFSNYAMYWVRQAPGKGLEWVAVISYDGSNKYYADSVKGRFTISRDNSKNTLYLQMNSLRTEDTAVYYCASGSDYGDYLLVYWGQGTLVTVSS
VL 2: QSALTQPASVSGSPGQSITISCTGTSSDVGGYNYVSWYQQHPGKAPKLMIYDVSKRPSGVSNRFSGSKSGNTASLTISGLQSEDEADYYCNSLTSISTWVFGGGTKLTVL
B2: REGN14315 (antibody, V domains shown)
VH: QVQLVQSGAEVKKPGSSVKVSCKASGDTFSTYAINWVRQAPGQGLEWMGRFIHIFGTANYAQKFQGRVTITADESTSTAYMELRSLRSEDTAVYYCARDGVDYGDYRPDYWGQGTLVTVSS
VL: EIVLTQSPGTLSLSPGERATLSCRASQSVSSNYLAWYQQKPGQAPRLLIYGASSRATGIPERFSGSGSGTDFTLTISRLEPEDFAVYYCQQYGSSLYTFGQGTKLEIK
B3: REGN14315 + REGN10987 (other)
VH 1: B2 VH
VL 1: B2 VL
VH 2: B1 VH 2
VL 2: B1 VL 2
B4: REGN10987 (antibody, V domains shown)
VH: B1 VH 2
VL: B1 VL 2
B5: REGN10933 (antibody, V domains shown)
VH: B1 VH 1
VL: B1 VL 1
B6: REGN14287 (antibody, V domains shown)
VH: QVQLVQSGAEVKKPGSSVKVSCKASGGTFSNNAISWVRQAPGQGLEWMGKIIPILGIGGDAQKFQGRFTITADKSTSTAYMELSSLRSEDTAVYYCANSGDSRPHAFDIWGQGTMVTVSS
VL: QSALTQPASVSGSPGQSITISCTGTSSDVGSYNLVSWYQQHPGKAPKLMIYEVSKRPSGVSNRFSGSKSGNTASLTISGLQAEDEADYYCSSYAGSRREVFGGGTKLTVL
B7: REGN14287 + REGN14315 (other)
VH 1: B6 VH
VL 1: B6 VL
VH 2: B2 VH
VL 2: B2 VL
B8: REGN14256 (antibody, V domains shown)
VH: QVQLQESGPGLVKPSETLSLTCTVSGGSISSHYWSWIRQPPGKGLEWIGYIYYSGSSNYNPSLKSRVTISVDTSKNQFSLKLNSVTAADTAVYYCARHYDILTGFDWFDPWGQGTLVTVSS
VL: QSVLTQPPSVSGAPGQRVTISCTGSSSNIGTHYDVHWYQQLPGTAPKLLIYGNSNRPSGVPDRFSGSKSGTSASLAITGLQAEDEADYYCQSFDNSLTAPYVFGTGTKVTVL

The target of the first experiment is T1, SARS-COV-2 Spike, D614G (SARS-COV-2, UniProt P0DTC2 14-1273). In words: cell-based or functional assay.
As to B1, the “pseudovirus neutralization IC50” value was 0.012 nM.

Another experiment deals with T1, SARS-COV-2 Spike, D614G. In words: cell-based or functional assay. The source holds these as a separate data set.
Consider B2, for which the “Fold change over R10987 against D614G” value stood at 0.22 fold and the “pseudovirus neutralization IC50” value came to 0.00115 nM.

For the molecule B3, the “Fold change over R10987 against D614G” value was 0.7 fold and the “pseudovirus neutralization IC50” value is 0.00368 nM.

For the next experiment, the target named is T2, SARS-COV-2 Spike, Omicron variant BA.1 (SARS-COV-2, UniProt P0DTC2 14-1273). Nature of the experiment: cell-based or functional assay.
With B2, the “Fold change over R10987 against D614G” value is 1.03 fold and the “pseudovirus neutralization IC50” value came to 0.00547 nM.

Turning to B3, the “Fold change over R10987 against D614G” value is 3.18 fold and the “pseudovirus neutralization IC50” value is 0.0169 nM.

The next experiment deals with T3, SARS-COV-2 Spike, Omicron variant BA.2 (SARS-COV-2, UniProt P0DTC2 14-1273). In words: cell-based or functional assay.
Turning to B4, the “Fold change over R10987 against D614G” value worked out at 199 fold and the “pseudovirus neutralization IC50” value worked out at 1.06 nM.

Take B2: the “Fold change over R10987 against D614G” value is 6.78 fold and the “pseudovirus neutralization IC50” value was 0.0359 nM.

For the molecule B3, the “Fold change over R10987 against D614G” value was 13.2 fold and the “pseudovirus neutralization IC50” value is 0.0699 nM.

Another experiment addresses SARS-COV-2 Spike, Omicron variant BA.2.12.1 (SARS-COV-2, UniProt P0DTC2 14-1273). In words: cell-based or functional assay.
Consider B4, for which the “Fold change over R10987 against D614G” value stood at 279 fold and the “pseudovirus neutralization IC50” value was determined as 1.48 nM.

For B2, the “Fold change over R10987 against D614G” value was 12.7 fold and the “pseudovirus neutralization IC50” value was found to be 0.0673 nM.

For B3, the “Fold change over R10987 against D614G” value was determined as 21 fold and the “pseudovirus neutralization IC50” value amounted to 0.111 nM.

Another experiment has as its target T4, SARS-COV-2 Spike, Omicron variant BA.4/BA.5 (SARS-COV-2, UniProt P0DTC2 14-1273). Nature of the experiment: cell-based or functional assay.
For the molecule B4, the “Fold change over R10987 against D614G” value came to 176 fold and the “pseudovirus neutralization IC50” value is 0.933 nM.

B2: the “Fold change over R10987 against D614G” value was 9.38 fold and the “pseudovirus neutralization IC50” value amounted to 0.0497 nM.

B3: the “Fold change over R10987 against D614G” value amounted to 20.7 fold and the “pseudovirus neutralization IC50” value was 0.11 nM.

Another experiment deals with T1, SARS-COV-2 Spike, D614G. In words: cell-based or functional assay. The source holds these as a separate data set.
Consider B1, for which the “Fold Change over R10933 + R10987 against D614G” value (shortened to “Fold Change over R10933 + R10987”) came out at 1 fold and the “pseudovirus neutralization IC50” value was determined as 0.0147 nM.

Take B4: the “Fold Change over R10933 + R10987” value was 0.89 fold and the “pseudovirus neutralization IC50” value was 0.0131 nM.

In the case of B5, the “Fold Change over R10933 + R10987” value was determined as 1.98 fold and the “pseudovirus neutralization IC50” value was determined as 0.0291 nM.

On to B6, for which the “Fold Change over R10933 + R10987” value is 6.18 fold and the “pseudovirus neutralization IC50” value came out at 0.0906 nM.

B2: the “Fold Change over R10933 + R10987” value is 0.6 fold and the “pseudovirus neutralization IC50” value was determined as 0.00878 nM.

As for B7, the “Fold Change over R10933 + R10987” value worked out at 0.76 fold and the “pseudovirus neutralization IC50” value amounted to 0.0111 nM.

B8: the “Fold Change over R10933 + R10987” value was 0.77 fold and the “pseudovirus neutralization IC50” value came out at 0.0114 nM.

For a further experiment, the target named is T2, SARS-COV-2 Spike, Omicron variant BA.1. In words: cell-based or functional assay. The source holds these as a separate data set.
Turning to B6, the “Fold Change over R10933 + R10987” value came out at 3.28 fold and the “pseudovirus neutralization IC50” value was 0.0481 nM.

B2: the “Fold Change over R10933 + R10987” value worked out at 2.76 fold and the “pseudovirus neutralization IC50” value turned out to be 0.0404 nM.

Consider B7, for which the “Fold Change over R10933 + R10987” value came out at 6.11 fold and the “pseudovirus neutralization IC50” value stood at 0.0896 nM.

The target of the next experiment is T3, SARS-COV-2 Spike, Omicron variant BA.2. Nature of the experiment: cell-based or functional assay. This is another data set of the same source.
Take B1: the “Fold Change over R10933 + R10987” value was 326 fold and the “pseudovirus neutralization IC50” value worked out at 4.77 nM.

For B4, the “Fold Change over R10933 + R10987” value is 149 fold and the “pseudovirus neutralization IC50” value was determined as 2.18 nM.

As for B6, the “Fold Change over R10933 + R10987” value came to 1.94 fold and the “pseudovirus neutralization IC50” value was found to be 0.0284 nM.

As for B2, the “Fold Change over R10933 + R10987” value was found to be 11.5 fold and the “pseudovirus neutralization IC50” value was 0.168 nM.

B7: the “Fold Change over R10933 + R10987” value stood at 9.75 fold and the “pseudovirus neutralization IC50” value worked out at 0.143 nM.

A further experiment has as its target T4, SARS-COV-2 Spike, Omicron variant …. Nature of the experiment: cell-based or functional assay. This is another data set of the same source.
With B1, the “Fold Change over R10933 + R10987” value amounted to 230 fold and the “pseudovirus neutralization IC50” value came out at 3.37 nM.

Take B4: the “Fold Change over R10933 + R10987” value was found to be 236 fold and the “pseudovirus neutralization IC50” value was determined as 3.46 nM.

Consider B6, for which the “Fold Change over R10933 + R10987” value was determined as 3.41 fold and the “pseudovirus neutralization IC50” value was determined as 0.05 nM.

B2: the “Fold Change over R10933 + R10987” value was determined as 10.8 fold and the “pseudovirus neutralization IC50” value was determined as 0.159 nM.

Regarding B7, the “Fold Change over R10933 + R10987” value came out at 14.9 fold and the “pseudovirus neutralization IC50” value amounted to 0.219 nM.

The next experiment has as its target SARS-COV-2 Spike, Omicron variant BA.2.75 (SARS-COV-2, UniProt P0DTC2 14-1273). Nature of the experiment: cell-based or functional assay.
As for B5, the “Fold Change over R10933 + R10987” value was determined as 148 fold and the “pseudovirus neutralization IC50” value worked out at 2.17 nM.

For B6, the “Fold Change over R10933 + R10987” value was 3.94 fold and the “pseudovirus neutralization IC50” value was 0.0578 nM.

Take B2: the “Fold Change over R10933 + R10987” value is 87 fold and the “pseudovirus neutralization IC50” value turned out to be 1.28 nM.

As to B7, the “Fold Change over R10933 + R10987” value was 20.5 fold and the “pseudovirus neutralization IC50” value is 0.3 nM.

(Values after patent US20240309072A1 (Regeneron, published 2024).)
